Starred links: 1 amine or outer side, 2 acyl side, 3 side chain; linkers in the order of their positions; H or OH if unused. Non-standard residues stand in square brackets, D forms with d. Groups on a side chain read outwards from the residue. No end group written: not given here. *: point of attachment. C18 diacid = O=C(O)CCCCCCCCCCCCCCCCC(=O)*; C16 diacid = O=C(O)CCCCCCCCCCCCCCC(=O)*; γGlu = O=C(O)[C@H](CCC(=O)[*:2])N[*:1]; Glutaryl = O=C(CCCC(=O)[*:2])[*:1]; AEEA = NCCOCCOCC(=O)O; Aib = CC(C)(N)C(=O)O
T1: human GIP receptor (human, UniProt P48546 22-466)
T1 sequence (looked up): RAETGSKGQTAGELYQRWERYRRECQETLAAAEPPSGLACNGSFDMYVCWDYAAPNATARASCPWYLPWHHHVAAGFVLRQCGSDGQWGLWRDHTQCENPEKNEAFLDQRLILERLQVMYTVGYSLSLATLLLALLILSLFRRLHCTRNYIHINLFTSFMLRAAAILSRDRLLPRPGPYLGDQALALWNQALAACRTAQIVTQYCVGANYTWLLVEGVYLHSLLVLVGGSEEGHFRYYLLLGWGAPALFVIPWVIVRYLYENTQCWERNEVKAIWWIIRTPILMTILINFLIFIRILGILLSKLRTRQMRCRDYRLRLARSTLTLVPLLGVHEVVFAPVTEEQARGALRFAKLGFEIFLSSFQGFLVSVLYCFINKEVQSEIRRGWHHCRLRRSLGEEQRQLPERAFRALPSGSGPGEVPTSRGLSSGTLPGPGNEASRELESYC

B1: AT482 (peptide)
peptide: EGTFISEYSIAMEKIK(C16 diacid)QQEFVQWLLAQK-NH2
modifications: N-terminus assumed
SMILES: CC[C@H](C)[C@H](NC(=O)[C@H](CO)NC(=O)[C@H](Cc1ccc(O)cc1)NC(=O)[C@H](CCC(=O)O)NC(=O)[C@H](CO)NC(=O)[C@@H](NC(=O)[C@H](Cc1ccccc1)NC(=O)[C@@H](NC(=O)CNC(=O)[C@@H](N)CCC(=O)O)[C@@H](C)O)[C@@H](C)CC)C(=O)N[C@@H](C)C(=O)N[C@@H](CCSC)C(=O)N[C@@H](CCC(=O)O)C(=O)N[C@@H](CCCCN)C(=O)N[C@H](C(=O)N[C@@H](CCCCNC(=O)CCCCCCCCCCCCCCC(=O)O)C(=O)N[C@@H](CCC(N)=O)C(=O)N[C@@H](CCC(N)=O)C(=O)N[C@@H](CCC(=O)O)C(=O)N[C@@H](Cc1ccccc1)C(=O)N[C@H](C(=O)N[C@@H](CCC(N)=O)C(=O)N[C@@H](Cc1c[nH]c2ccccc12)C(=O)N[C@@H](CC(C)C)C(=O)N[C@@H](CC(C)C)C(=O)N[C@@H](C)C(=O)N[C@@H](CCC(N)=O)C(=O)N[C@@H](CCCCN)C(N)=O)C(C)C)[C@@H](C)CC
B2: AT158 (peptide)
peptide: EGTFISDYSIAMDKIK(C16 diacid)QQDFVNWLLAQK-NH2
modifications: N-terminus assumed
SMILES: CC[C@H](C)[C@H](NC(=O)[C@H](CO)NC(=O)[C@H](Cc1ccc(O)cc1)NC(=O)[C@H](CC(=O)O)NC(=O)[C@H](CO)NC(=O)[C@@H](NC(=O)[C@H](Cc1ccccc1)NC(=O)[C@@H](NC(=O)CNC(=O)[C@@H](N)CCC(=O)O)[C@@H](C)O)[C@@H](C)CC)C(=O)N[C@@H](C)C(=O)N[C@@H](CCSC)C(=O)N[C@@H](CC(=O)O)C(=O)N[C@@H](CCCCN)C(=O)N[C@H](C(=O)N[C@@H](CCCCNC(=O)CCCCCCCCCCCCCCC(=O)O)C(=O)N[C@@H](CCC(N)=O)C(=O)N[C@@H](CCC(N)=O)C(=O)N[C@@H](CC(=O)O)C(=O)N[C@@H](Cc1ccccc1)C(=O)N[C@H](C(=O)N[C@@H](CC(N)=O)C(=O)N[C@@H](Cc1c[nH]c2ccccc12)C(=O)N[C@@H](CC(C)C)C(=O)N[C@@H](CC(C)C)C(=O)N[C@@H](C)C(=O)N[C@@H](CCC(N)=O)C(=O)N[C@@H](CCCCN)C(N)=O)C(C)C)[C@@H](C)CC
B3: AT364 (peptide)
peptide: EGTFISDYSIAMDKIK(C16 diacid)QQDFVNWLLAQKPSSGAPPPS-OH
modifications: N-terminus assumed
SMILES: CC[C@H](C)[C@H](NC(=O)[C@H](CO)NC(=O)[C@H](Cc1ccc(O)cc1)NC(=O)[C@H](CC(=O)O)NC(=O)[C@H](CO)NC(=O)[C@@H](NC(=O)[C@H](Cc1ccccc1)NC(=O)[C@@H](NC(=O)CNC(=O)[C@@H](N)CCC(=O)O)[C@@H](C)O)[C@@H](C)CC)C(=O)N[C@@H](C)C(=O)N[C@@H](CCSC)C(=O)N[C@@H](CC(=O)O)C(=O)N[C@@H](CCCCN)C(=O)N[C@H](C(=O)N[C@@H](CCCCNC(=O)CCCCCCCCCCCCCCC(=O)O)C(=O)N[C@@H](CCC(N)=O)C(=O)N[C@@H](CCC(N)=O)C(=O)N[C@@H](CC(=O)O)C(=O)N[C@@H](Cc1ccccc1)C(=O)N[C@H](C(=O)N[C@@H](CC(N)=O)C(=O)N[C@@H](Cc1c[nH]c2ccccc12)C(=O)N[C@@H](CC(C)C)C(=O)N[C@@H](CC(C)C)C(=O)N[C@@H](C)C(=O)N[C@@H](CCC(N)=O)C(=O)N[C@@H](CCCCN)C(=O)N1CCC[C@H]1C(=O)N[C@@H](CO)C(=O)N[C@@H](CO)C(=O)NCC(=O)N[C@@H](C)C(=O)N1CCC[C@H]1C(=O)N1CCC[C@H]1C(=O)N1CCC[C@H]1C(=O)N[C@@H](CO)C(=O)O)C(C)C)[C@@H](C)CC
B4: AT437 (peptide)
peptide: SGTFISDYSIAMDKIK([AEEA-AEEA-γGlu-C18 diacid])QQDFVNWLLAQKPSSGAPPPS-OH
modifications: N-terminus assumed
SMILES: CC[C@H](C)[C@H](NC(=O)[C@H](CO)NC(=O)[C@H](Cc1ccc(O)cc1)NC(=O)[C@H](CC(=O)O)NC(=O)[C@H](CO)NC(=O)[C@@H](NC(=O)[C@H](Cc1ccccc1)NC(=O)[C@@H](NC(=O)CNC(=O)[C@@H](N)CO)[C@@H](C)O)[C@@H](C)CC)C(=O)N[C@@H](C)C(=O)N[C@@H](CCSC)C(=O)N[C@@H](CC(=O)O)C(=O)N[C@@H](CCCCN)C(=O)N[C@H](C(=O)N[C@@H](CCCCNC(=O)COCCOCCNC(=O)COCCOCCNC(=O)CC[C@H](NC(=O)CCCCCCCCCCCCCCCCC(=O)O)C(=O)O)C(=O)N[C@@H](CCC(N)=O)C(=O)N[C@@H](CCC(N)=O)C(=O)N[C@@H](CC(=O)O)C(=O)N[C@@H](Cc1ccccc1)C(=O)N[C@H](C(=O)N[C@@H](CC(N)=O)C(=O)N[C@@H](Cc1c[nH]c2ccccc12)C(=O)N[C@@H](CC(C)C)C(=O)N[C@@H](CC(C)C)C(=O)N[C@@H](C)C(=O)N[C@@H](CCC(N)=O)C(=O)N[C@@H](CCCCN)C(=O)N1CCC[C@H]1C(=O)N[C@@H](CO)C(=O)N[C@@H](CO)C(=O)NCC(=O)N[C@@H](C)C(=O)N1CCC[C@H]1C(=O)N1CCC[C@H]1C(=O)N1CCC[C@H]1C(=O)N[C@@H](CO)C(=O)O)C(C)C)[C@@H](C)CC
B5: AT762 (peptide)
peptide: Glutaryl-GTFISDYSIAMDKIK(C16 diacid)QQDFVEWLLAQKPSSGAPPPS-OH
SMILES: CC[C@H](C)[C@H](NC(=O)[C@H](CO)NC(=O)[C@H](Cc1ccc(O)cc1)NC(=O)[C@H](CC(=O)O)NC(=O)[C@H](CO)NC(=O)[C@@H](NC(=O)[C@H](Cc1ccccc1)NC(=O)[C@@H](NC(=O)CNC(=O)CCCC(=O)O)[C@@H](C)O)[C@@H](C)CC)C(=O)N[C@@H](C)C(=O)N[C@@H](CCSC)C(=O)N[C@@H](CC(=O)O)C(=O)N[C@@H](CCCCN)C(=O)N[C@H](C(=O)N[C@@H](CCCCNC(=O)CCCCCCCCCCCCCCC(=O)O)C(=O)N[C@@H](CCC(N)=O)C(=O)N[C@@H](CCC(N)=O)C(=O)N[C@@H](CC(=O)O)C(=O)N[C@@H](Cc1ccccc1)C(=O)N[C@H](C(=O)N[C@@H](CCC(=O)O)C(=O)N[C@@H](Cc1c[nH]c2ccccc12)C(=O)N[C@@H](CC(C)C)C(=O)N[C@@H](CC(C)C)C(=O)N[C@@H](C)C(=O)N[C@@H](CCC(N)=O)C(=O)N[C@@H](CCCCN)C(=O)N1CCC[C@H]1C(=O)N[C@@H](CO)C(=O)N[C@@H](CO)C(=O)NCC(=O)N[C@@H](C)C(=O)N1CCC[C@H]1C(=O)N1CCC[C@H]1C(=O)N1CCC[C@H]1C(=O)N[C@@H](CO)C(=O)O)C(C)C)[C@@H](C)CC

What follows are binders tested against T1, human GIP receptor (assay: cell-based or functional assay).
For EGTFISDYSIAMDKIHQQDFVNWLLAQK [GIP(3-30)], the “cAMP antagonism nM (IC50, CisBio assay)” value was 33.8 nM and the “cAMP antagonism pIC50 (CisBio assay)” value was 7.5. In the case of B1, the “cAMP antagonism nM (IC50, CisBio assay)” value is reported as 14.1 nM and the “cAMP antagonism pIC50 (CisBio assay)” value is reported as 7.9. B2 was tested, and the “cAMP antagonism nM (IC50, CisBio assay)” value was 14.3 nM and the “cAMP antagonism pIC50 (CisBio assay)” value was 7.8. With B3 the “cAMP antagonism nM (IC50, CisBio assay)” value was 1.12 nM and the “cAMP antagonism pIC50 (CisBio assay)” value was 9. B4 was tested, and the “cAMP antagonism nM (IC50, CisBio assay)” value was 35.5 nM and the “cAMP antagonism pIC50 (CisBio assay)” value was 7.5.

Molecular target: T1, human GIP receptor
Assay: cell-based or functional assay
Remark: another data set of the same source
In the case of EGTFISDYSIAMDKIHQQDFVNWLLAQK [GIP(3-30)], the “nM (Kb, Schild analysis, cAMP)” value is reported as 3.5 nM and the “pKb (Schild analysis, cAMP)” value is reported as 8.5. In the case of B2, the “nM (Kb, Schild analysis, cAMP)” value is reported as 3.7 nM and the “pKb (Schild analysis, cAMP)” value is reported as 8.4. In the case of B3, the “nM (Kb, Schild analysis, cAMP)” value is reported as 0.77 nM and the “pKb (Schild analysis, cAMP)” value is reported as 9.1. For B5, the “nM (Kb, Schild analysis, cAMP)” value was 0.15 nM and the “pKb (Schild analysis, cAMP)” value was 9.8. For Glutaryl-GTFISDYSI[Aib]MDKIK(C16 diacid)QQDFVNWLLAQKPSSGAPPPS-OH [AT763], the “nM (Kb, Schild analysis, cAMP)” value was 0.14 nM and the “pKb (Schild analysis, cAMP)” value was 9.9.

Source: patent US20230416330A1, “Optimized GIP Peptide Analogues” (Antag Therapeutics ApS, priority 2019, published 2023)
